# Reference: PMC7065454 (Molecular cell, 2020)
# Where “and” joins values, the source holds several entries; their conditions need not be identical. Equal values may be shown once. Read-outs that look alike come from different tables or passages of the source.
# Experiments:
# Ec NucC [1] = molecular target: T1, Ec NucC (Escherichia coli, UniProt D7Y2H5); experiment: ITC; type: binding
# Ec NucC [2] = molecular target: T1, Ec NucC; experiment: ITC; type: binding; remark: listed apart in the source
# Ec NucC [3] = molecular target: T1, Ec NucC; experiment: ITC; type: binding; remark: listed apart in the source
# Pa NucC = Pa NucC (Pseudomonas aeruginosa, UniProt P0DTF8, D73N); experiment: co-crystal structure at […] Å; type: binding
# Vm NucC = molecular target: T2, Vm NucC (Vibrio metoecus, UniProt P0DUD6); experiment: plasmid digestion assay, weak activation; type: biochemical
# T2 sequence (P0DUD6 1-245): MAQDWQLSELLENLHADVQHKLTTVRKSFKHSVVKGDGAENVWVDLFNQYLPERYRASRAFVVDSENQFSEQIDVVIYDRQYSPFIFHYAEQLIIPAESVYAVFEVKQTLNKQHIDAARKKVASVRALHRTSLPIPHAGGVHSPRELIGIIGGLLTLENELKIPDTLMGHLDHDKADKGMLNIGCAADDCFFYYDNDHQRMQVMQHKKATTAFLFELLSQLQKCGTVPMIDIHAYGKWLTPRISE
# crystal structure = molecular target: the molecule itself; experiment: crystal structure
# SEC-MALS [4] = molecular target: the molecule itself; experiment: SEC-MALS
# SEC-MALS [5] = molecular target: the molecule itself; experiment: SEC-MALS; remark: listed apart in the source
molecule,measurement,setting,value
"Nc1ncnc2c1ncn2[C@@H]1O[C@@H]2COP(=O)(O)O[C@H]3[C@@H](O)[C@H](n4cnc5c(N)ncnc54)O[C@@H]3COP(=O)(O)O[C@H]2[C@H]1O [3′,3′ cyclic di-AMP]",Kd,Ec NucC [1],2600 nM
Nc1ncnc2c1ncn2[C@@H]1O[C@H](COP(=O)(O)O[C@H]2[C@@H](O)[C@H](n3cnc4c(N)ncnc43)O[C@@H]2COP(=O)(O)O)[C@@H](O)[C@H]1O [5′-pApA],Kd,Ec NucC [2],4400 nM
Nc1ncnc2c1ncn2[C@@H]1O[C@@H]2COP(=O)(O)O[C@H]3[C@@H](O)[C@H](n4cnc5c(N)ncnc54)O[C@@H]3COP(=O)(O)O[C@H]3[C@@H](O)[C@H](n4cnc5c(N)ncnc54)O[C@@H]3COP(=O)(O)O[C@H]2[C@H]1O [cAAA],Kd,Ec NucC [3],700 nM
same,co-crystal structure at 1.45 Å; SEC-MALS hexamer assembly of Pa NucC,Pa NucC,We obtained crystals of P. aeruginosa ATCC27853 NucC D73N mutant bound to cAAA
Nc1nc2c(ncn2[C@@H]2O[C@@H]3COP(=O)(O)O[C@H]4[C@@H](O)[C@H](n5cnc6c(N)ncnc65)O[C@@H]4COP(=O)(O)O[C@H]4[C@@H](O)[C@H](n5cnc6c(N)ncnc65)O[C@@H]4COP(=O)(O)O[C@H]3[C@H]2O)c(=O)[nH]1 [cAAG],"plasmid digestion assay, weak activation",Vm NucC,weakly activated by both cAA and cAAG
Nc1ncnc2c1ncn2[C@@H]1O[C@@H]2COP(=O)(O)O[C@H]3[C@@H](O)[C@H](n4cnc5c(N)ncnc54)O[C@@H]3COP(=O)(O)O[C@H]2[C@H]1O [cAA],"plasmid digestion assay, weak activation",Vm NucC,weakly activated by both cAA and cAAG
"E. coli MS115-1 NucC (wild type) (enzyme, UniProt D7Y2H5 1-241, looked up) MSDWSLSQLFASLHEDIQLRLGTARKAFQHPGAKGDASEGVWIEMLDTYLPKRYQAANAFVVDSLGNFSDQIDVVVFDRQYSPFIFKFNEQIIVPAESVYAVFEAKQSASADLVAYAQRKVASVRRLHRTSLPIPHAGGTYPAKPLIPILGGLLTFESDWSPALGMSFDKALNGDLSDGRLDMGCVASHGHFYFNNIDSKFNFEHGNKPATAFLFRLIAQLQFSGTVPMIDIDAYGKWLAN",stoichiometry N,crystal structure,6
same,stoichiometry N,SEC-MALS [4],3
"Ec NucC L19D mutant with D73N (SEC-MALS sample) (enzyme, E. coli MS115-1, UniProt D7Y2H5 1-241, looked up) MSDWSLSQLFASLHEDIQDRLGTARKAFQHPGAKGDASEGVWIEMLDTYLPKRYQAANAFVVDSLGNFSDQINVVVFDRQYSPFIFKFNEQIIVPAESVYAVFEAKQSASADLVAYAQRKVASVRRLHRTSLPIPHAGGTYPAKPLIPILGGLLTFESDWSPALGMSFDKALNGDLSDGRLDMGCVASHGHFYFNNIDSKFNFEHGNKPATAFLFRLIAQLQFSGTVPMIDIDAYGKWLAN",stoichiometry N,SEC-MALS [5],3
"Ec NucC L19A mutant with D73N (SEC-MALS sample) (enzyme, E. coli MS115-1, UniProt D7Y2H5 1-241, looked up) MSDWSLSQLFASLHEDIQARLGTARKAFQHPGAKGDASEGVWIEMLDTYLPKRYQAANAFVVDSLGNFSDQINVVVFDRQYSPFIFKFNEQIIVPAESVYAVFEAKQSASADLVAYAQRKVASVRRLHRTSLPIPHAGGTYPAKPLIPILGGLLTFESDWSPALGMSFDKALNGDLSDGRLDMGCVASHGHFYFNNIDSKFNFEHGNKPATAFLFRLIAQLQFSGTVPMIDIDAYGKWLAN",binding result,SEC-MALS [5],binds
"Ec NucC W4A mutant with D73N (SEC-MALS sample) (enzyme, E. coli MS115-1, UniProt D7Y2H5 1-241, looked up) MSDASLSQLFASLHEDIQLRLGTARKAFQHPGAKGDASEGVWIEMLDTYLPKRYQAANAFVVDSLGNFSDQINVVVFDRQYSPFIFKFNEQIIVPAESVYAVFEAKQSASADLVAYAQRKVASVRRLHRTSLPIPHAGGTYPAKPLIPILGGLLTFESDWSPALGMSFDKALNGDLSDGRLDMGCVASHGHFYFNNIDSKFNFEHGNKPATAFLFRLIAQLQFSGTVPMIDIDAYGKWLAN",binding result,SEC-MALS [5],binds
"Vibrio metoecus sp. RC341 NucC (enzyme, UniProt P0DUD6 1-245, looked up) MAQDWQLSELLENLHADVQHKLTTVRKSFKHSVVKGDGAENVWVDLFNQYLPERYRASRAFVVDSENQFSEQIDVVIYDRQYSPFIFHYAEQLIIPAESVYAVFEVKQTLNKQHIDAARKKVASVRALHRTSLPIPHAGGVHSPRELIGIIGGLLTLENELKIPDTLMGHLDHDKADKGMLNIGCAADDCFFYYDNDHQRMQVMQHKKATTAFLFELLSQLQKCGTVPMIDIHAYGKWLTPRISE",stoichiometry N,SEC-MALS [4],3 and 6
P. aeruginosa ATCC 27853 NucC (wild type) (enzyme) MSQWSLSQLLSSLHEDIQQRLSVVRKTFGHPGTKGDASENVWIDMLDTYLPKRYQAAKAHVVDSLGNFSQQIDVVVFDRQYSPFIFTYENETIIPAESVYAVFEAKQTADAGLVAYAQEKVASVRRLHRTSLPIPHAGGTYPAKPLIPILGGLLTFESEWSPALGPSMDKALNANLTEGRLDIGCVAAHGHFFYDQASGAYSYTNENKPATAFLFKLIAQLQFSGTVPMIDVEAYGQWLTK,stoichiometry N,SEC-MALS [5],6
same,stoichiometry N,SEC-MALS [4],3
